In patent CN114075278A:
Where two headings read alike, the source gives them in different places.

Experiments:
流感A抗原 [1] = target: 流感A抗原
流感A抗原 [2] = assay: biolayer interferometry, AMC sensors, antibody immobilised, antigen in a dilution series
流感A抗原 [3] = assay: sandwich ELISA: antibody at 625 ng/ml captured on goat anti-mouse IgG, Flu-A antigen, HRP-labelled paired mAb
流感A抗原 [4] = assay: sandwich ELISA: antibody at 1250 ng/ml captured on goat anti-mouse IgG, Flu-A antigen, HRP-labelled paired mAb
流感A抗原 [5] = assay: sandwich ELISA: antibody at 2500 ng/ml captured on goat anti-mouse IgG, Flu-A antigen, HRP-labelled paired mAb
流感A抗原 [6] = assay: sandwich ELISA: antibody at 5000 ng/ml captured on goat anti-mouse IgG, Flu-A antigen, HRP-labelled paired mAb
流感A抗原 [7] = assay: sandwich ELISA: antibody at 312.5 ng/ml captured on goat anti-mouse IgG, Flu-A antigen, HRP-labelled paired mAb

B1: 实施例1的抗Flu-A抗体(WT) (antibody, V domains shown)
VH: EVQLQQSGPELVKPGASVKISCKASGFSFSGYYLHWVRQSPLKSLEWIGRINPYNGGTTYNQDFKGKASLTVDKSSSTAYMELHSLTSEDSAVYYCARYSSVDAMDYWGQGTSVTVSS
VL: QIVLTQSPAIMSASLGERVTMTCTGSSSVLSSYLHWYQQKPGSSPKLWIYSSSNLASGVPARFSGSGSGTSYSLTISSMEAEDAATYYCQQWHRSPWTFGGGTKLEIKR
B1 was tested, and the OD450 (ref 630 nm) (流感A抗原 [1]) was greater than 1 OD, the Kd (流感A抗原 [2]) was 40.5 nM and the OD450 (ref 630 nm) (流感A抗原 [3]) was 0.754 OD. It also gave an OD450 (ref 630 nm) (流感A抗原 [4]) of 0.946 OD, an OD450 (ref 630 nm) (流感A抗原 [5]) of 1.39 OD and an OD450 (ref 630 nm) (流感A抗原 [6]) of 1.73 OD. The OD450 (ref 630 nm) (流感A抗原 [7]) was 0.535 OD.
